The data set concerns the target FAR (FXR)-RXRalpha heterodimer (Rattus norvegicus / Homo sapiens, UniProt Q62735;P19793 Q62735:1-469,P19793:1-462). Description: cell_activity; 50 uM JH III, CV-1 cells; 17-fold JH III, 76-fold LG69, 212-fold both in p89; parental MTV reporter lacking EcREs not activated. To be noted: tags: CMV-driven expression in CV-1 cells. How it is done:
Thus, with reference to FIG. 5A, CV-1 cells were transiently transfected with hsp27-EcRE×5 MTV-luciferase alone (−) or with expression vectors for rat FAR and/or human RXRα. Reporter activity was assayed after treating cells with or without 50 μM JH III.

Sequence of FAR (FXR)-RXRalpha heterodimer (Q62735 whole entry, chain 1 of 2): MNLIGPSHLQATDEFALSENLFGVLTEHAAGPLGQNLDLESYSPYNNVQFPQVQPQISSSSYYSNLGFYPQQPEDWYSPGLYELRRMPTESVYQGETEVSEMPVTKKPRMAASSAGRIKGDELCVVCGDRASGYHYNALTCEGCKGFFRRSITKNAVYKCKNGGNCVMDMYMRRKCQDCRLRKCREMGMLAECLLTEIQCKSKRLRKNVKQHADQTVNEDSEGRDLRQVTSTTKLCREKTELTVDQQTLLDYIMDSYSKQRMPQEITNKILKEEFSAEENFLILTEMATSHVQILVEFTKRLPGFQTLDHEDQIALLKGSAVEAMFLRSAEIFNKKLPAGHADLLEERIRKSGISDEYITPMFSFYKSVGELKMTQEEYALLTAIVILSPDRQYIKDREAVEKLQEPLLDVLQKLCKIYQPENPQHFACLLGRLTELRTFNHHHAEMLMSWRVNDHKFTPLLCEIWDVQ
Sequence of FAR (FXR)-RXRalpha heterodimer (P19793 whole entry, chain 2 of 2): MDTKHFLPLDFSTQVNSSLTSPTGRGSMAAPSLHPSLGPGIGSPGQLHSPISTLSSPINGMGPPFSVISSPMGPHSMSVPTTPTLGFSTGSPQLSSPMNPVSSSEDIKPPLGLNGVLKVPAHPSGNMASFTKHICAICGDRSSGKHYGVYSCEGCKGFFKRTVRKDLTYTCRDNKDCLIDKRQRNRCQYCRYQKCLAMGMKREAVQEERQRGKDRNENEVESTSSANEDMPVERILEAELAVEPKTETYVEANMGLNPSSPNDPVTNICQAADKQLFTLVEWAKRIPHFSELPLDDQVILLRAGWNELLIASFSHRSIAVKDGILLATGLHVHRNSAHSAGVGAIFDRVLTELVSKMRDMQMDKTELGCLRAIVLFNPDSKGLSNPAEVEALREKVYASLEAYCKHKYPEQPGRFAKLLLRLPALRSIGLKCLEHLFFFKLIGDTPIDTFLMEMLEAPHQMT

B1: hsp27-EcREx5 MTV-luciferase reporter (dsDNA)
DNA 1: GGTTCAATGCACT
DNA 2: AGTGCATTGAACC
Turning to B1, the activity was 10 fold.

The values are drawn from patent US6416957, “Method for modulating process mediated by farnesoid activated receptors” (The Salk Institute for Biological Studies).
